{"source": "patent US20230287433", "about": "“APTAMERS FOR PERSONAL HEALTH CARE APPLICATIONS” (The Procter & Gamble Company, published 2023)", "binders": {"B1": {"name": "Nas.R-8 (ssRNA)", "RNA": "GGGUGCAUCGUUUACGCGUAAAAAUUAAAGAGAUUAAGGUCCUUAAGCAGUUUUGUCCUGCUGCUGAGGAAGGAUAUGAG", "modifications": "2'-F pyrimidines (all C and U)"}, "B2": {"name": "Nas.R-4 (ssRNA)", "RNA": "GGGUGCAUCGUUUACGCGCAACAUAAAAAUUUAAAGUGCUCAGUUGUCAAUCUAUGACUGCUGCUGAGGAAGGAUAUGAG", "modifications": "2'-F pyrimidines (all C and U)"}, "B3": {"name": "Nas.R-2 (ssRNA)", "RNA": "GGGUGCAUCGUUUACGCAGAUAGCAGCAGGAAUCAAGCGGUAGGAGUCUAGCAGAAGCUGCUGCUGAGGAAGGAUAUGAG", "modifications": "2'-F pyrimidines (all C and U)"}, "B4": {"name": "Nas.R-1 (ssRNA)", "RNA": "GGGUGCAUCGUUUACGCGAUUAGUCUGAUAAACAAAAAGAUUUCGCUAAAAAUCAAUCUGCUGCUGAGGAAGGAUAUGAG", "modifications": "2'-F pyrimidines (all C and U)"}}, "key": {"[1]": {"biological_target": "T1, ICAM-1 extracellular domain (C-terminal His) (Homo sapiens, UniProt P05362 SEQ:1-453)", "T1 sequence (P05362 28-480)": "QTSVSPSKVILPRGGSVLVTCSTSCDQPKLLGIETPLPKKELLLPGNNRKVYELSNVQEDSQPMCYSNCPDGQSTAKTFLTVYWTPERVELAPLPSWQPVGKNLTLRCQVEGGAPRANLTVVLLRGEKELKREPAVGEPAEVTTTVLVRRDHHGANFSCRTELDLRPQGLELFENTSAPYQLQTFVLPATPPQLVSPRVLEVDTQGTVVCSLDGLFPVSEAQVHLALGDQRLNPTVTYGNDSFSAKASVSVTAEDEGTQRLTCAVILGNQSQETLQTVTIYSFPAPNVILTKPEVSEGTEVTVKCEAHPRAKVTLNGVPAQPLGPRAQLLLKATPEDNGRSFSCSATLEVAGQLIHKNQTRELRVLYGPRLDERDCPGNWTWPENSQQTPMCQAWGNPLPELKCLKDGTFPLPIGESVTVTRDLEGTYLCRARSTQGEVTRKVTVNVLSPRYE", "assay": "ITC; 37 C, potassium phosphate; 1.27 nM at 33 C (tighter)", "settings": "tags: C-terminal His6; Ray-Biotech 228-21751-2", "description": "(§1) Aptamers as disclosed herein were selected to perform at 37° C. in the SELEX selection process. Further, all experiments relating to performance of aptamers executed on cells grown in culture were performed at 37° C. as well, as this was the appropriate temperature for optimal cell growth and corresponds to body temperature. However, the aptamers are intended to function on the inner surface of the nasal cavity in vivo and said nasal cells show a slightly lower average temperature of 33° C. As such it was important to ensure that the aptamers of the present invention perform at both temperatures. Accordingly, binding analysis was executed using isothermal titration calorimetry (ITC) using Nano ITC (Low Volume of TA Instruments) and following user instructions for the NasD-4.1 aptamer (SEQ ID NO: 244) at 37° C. as well as at 33° C. Specific mutations in sequence (SEQ ID NO: 264-270) were tested to analyze the impact of temperature and secondary structure. 600 nM concentration of the NasD-4.1 aptamer was injected in 11 injections of 4.88 uL each into a 100 nM concentration of ICAM-1 receptor protein in a volume of 193 uL. The same concentration of mutant aptamer was injected into buffer, as well as buffer was injected into the same amount of protein as controls. The ITC experiments were performed at 33° C. and 37° C. in potassium phosphate buffer."}, "[2]": {"biological_target": "T2, ICAM-1 (on cells) (Homo sapiens, UniProt P05362 SEQ:28-532)", "T2 sequence (P05362 28-532)": "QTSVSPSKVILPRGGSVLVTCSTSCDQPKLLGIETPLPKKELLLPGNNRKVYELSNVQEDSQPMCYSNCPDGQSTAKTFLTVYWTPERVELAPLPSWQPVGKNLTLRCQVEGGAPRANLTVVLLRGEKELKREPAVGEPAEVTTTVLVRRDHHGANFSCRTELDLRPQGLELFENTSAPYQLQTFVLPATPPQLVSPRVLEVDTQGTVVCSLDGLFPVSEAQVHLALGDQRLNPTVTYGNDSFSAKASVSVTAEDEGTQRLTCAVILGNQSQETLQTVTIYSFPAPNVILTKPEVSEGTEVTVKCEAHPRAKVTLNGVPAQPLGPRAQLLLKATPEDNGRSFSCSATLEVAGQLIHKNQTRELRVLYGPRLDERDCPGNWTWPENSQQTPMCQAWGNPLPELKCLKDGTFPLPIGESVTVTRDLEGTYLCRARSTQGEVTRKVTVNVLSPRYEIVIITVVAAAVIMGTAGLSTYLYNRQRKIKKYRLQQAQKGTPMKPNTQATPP", "assay": "HNEpC cells, 2 h, 500 nM; RH-30 below 500 RFU", "settings": "tags: endogenous on HNEpC (PromoCell C-21060) or H1-HeLa cells; label: FAM in cell assay; hairpin with dangling 5' and 3' ends", "description": "(§2) Fluorescein amidite (FAM)-conjugated DNA aptamers were incubated at 500 nM onto cells cultured in 24-well plates for 4 hours at 37° C. in 5% CO2. At specific timepoints (0.5h, 1h, 2h, 4h), the cell media was aspirated, and the wells were washed three times with 1× selection buffer. To elute and lyse the cells, 200ul of 6M urea was applied to the well and incubated at 37° C. for 5 minutes. The urea-aptamer solution was transferred and measured in a 96-well microplate reader at 495 nm absorbance. Samples were measured in triplicate. FIGS. 23 to 26 show the results.\nMaximal binding can be seen after 2 hours, wherein the absolute number of the truncated sequence bound to HNEpC is 2.5 times of the number of the parent aptamer bound. Binding to RH-30 cells is similar for both aptamers, truncated sequence (SEQ ID NO: 244) and parent sequence (SEQ ID NO: 104) and below 500 RFU."}, "[3]": {"biological_target": "T1, ICAM-1 extracellular domain (C-terminal …)", "assay": "ITC; 37 C, potassium phosphate; 8.86 nM at 33 C", "settings": "tags: C-terminal His6; Ray-Biotech 228-21751-2; label: FAM in cell assay; hairpin with dangling 5' and 3' ends", "description": "as §1"}, "[4]": {"biological_target": "T1, ICAM-1 extracellular domain (C-terminal …)", "assay": "ITC; 37 C, potassium phosphate; 14.3 nM at 33 C", "settings": "tags: C-terminal His6; Ray-Biotech 228-21751-2", "description": "as §1"}, "[5]": {"biological_target": "T1, ICAM-1 extracellular domain (C-terminal …)", "assay": "ITC; 37 C, potassium phosphate; 9.09 nM at 33 C", "settings": "tags: C-terminal His6; Ray-Biotech 228-21751-2", "description": "as §1"}, "[6]": {"biological_target": "T1, ICAM-1 extracellular domain (C-terminal …)", "assay": "ITC; 37 C, potassium phosphate; 10 nM at 33 C", "settings": "tags: C-terminal His6; Ray-Biotech 228-21751-2", "description": "as §1"}, "[7]": {"biological_target": "T1, ICAM-1 extracellular domain (C-terminal …)", "assay": "ITC; 37 C, potassium phosphate; 18.1 nM at 33 C", "settings": "tags: C-terminal His6; Ray-Biotech 228-21751-2", "description": "as §1"}, "[8]": {"biological_target": "T1, ICAM-1 extracellular domain (C-terminal …)", "assay": "ITC; 37 C, potassium phosphate; 37 nM at 33 C (weaker)", "settings": "tags: C-terminal His6; Ray-Biotech 228-21751-2", "description": "as §1"}, "[9]": {"biological_target": "T2, ICAM-1 (on cells)", "assay": "HNEpC cells, 0.5 h, 500 nM; RH-30 hardly detectable", "settings": "tags: endogenous on HNEpC (PromoCell C-21060) or H1-HeLa cells; label: FAM", "description": "as §2\nMaximal binding of the truncated sequence Nas.D-5 (SEQ ID NO: 245) can be observed after 0.5 hours, wherein more than 2 times of the truncated aptamers bound to HNEpC compared to the parent aptamer. Binding to RH-30 cells was hardly detectable (FIG. 25). […] The absolute number of bound oligonucleotides of the truncated aptamer (SEQ ID NO: 246) is again higher than the number of bound oligonucleotides of the parent sequence (SEQ ID NO: 108)."}, "[10]": {"biological_target": "T1, ICAM-1 extracellular domain (C-terminal …)", "assay": "SPR; aptamer immobilized on gold chip; 250 nM ICAM-1", "settings": "tags: C-terminal His6; Ray-Biotech 228-21751-2", "description": "(§3) After conjugation of the cystamine moeities to phosphoramidate bonds at the 5′ phosphate group, the aptamer was immobilized on a gold chip by depositing an aliquot of 10 nL of aptamer solution at a concentration of 10 μM onto the surface of the chip. The gold reduces the cystamine to a pair of thiols and then catalyzes the reduction reaction that results in the covalent bond between the gold surface and the thiol groups of the modified aptamers.\n(§4) Solutions of 200 μL of ICAM-1 protein or human serum albumin were flown over the gold chip at a concentration of 250 nM and a flow rate of 50 μL/min using an Openplex Surface Plasmon Resonance System (Horiba, Kyoto, Kyoto, Japan). Thus, the association phase lasted for 4 minutes after injection and was immediately followed by the disassociation phase. The total resonance of the negative control aptamer was subtracted from the total resonance observed for each of the candidate aptamers. The result corresponds to the resonance contribution due to the binding of the protein to the aptamer.\nwhere Rmax is the maximum resonance due to binding observed, and c is the concentration of the injectant. Finally, the dissociation equilibrium constant kD was calculated as the ratio of kd over ka (see Table 2). The low nanomolar kD values obtained for the different aptamers confirm the strong binding affinity of such molecules towards ICAM-1 and validate the aptamer selection process described in Example 1. As used herein, “kd” refers to the dissociation rate, “ka” refers to the association rate, and “kD” refers to the dissociation equilibrium constant."}, "[11]": {"biological_target": "T2, ICAM-1 (on cells)", "assay": "HNEpC cells, FAM-RNA 500 nM, 37 C; qPCR binding higher than to HEK293", "settings": "tags: endogenous on HNEpC (PromoCell C-21060) or H1-HeLa cells"}, "[12]": {"biological_target": "human serum albumin (Homo sapiens, UniProt P02768 P02768:25-609)", "sequence (P02768 25-609, one chain of several)": "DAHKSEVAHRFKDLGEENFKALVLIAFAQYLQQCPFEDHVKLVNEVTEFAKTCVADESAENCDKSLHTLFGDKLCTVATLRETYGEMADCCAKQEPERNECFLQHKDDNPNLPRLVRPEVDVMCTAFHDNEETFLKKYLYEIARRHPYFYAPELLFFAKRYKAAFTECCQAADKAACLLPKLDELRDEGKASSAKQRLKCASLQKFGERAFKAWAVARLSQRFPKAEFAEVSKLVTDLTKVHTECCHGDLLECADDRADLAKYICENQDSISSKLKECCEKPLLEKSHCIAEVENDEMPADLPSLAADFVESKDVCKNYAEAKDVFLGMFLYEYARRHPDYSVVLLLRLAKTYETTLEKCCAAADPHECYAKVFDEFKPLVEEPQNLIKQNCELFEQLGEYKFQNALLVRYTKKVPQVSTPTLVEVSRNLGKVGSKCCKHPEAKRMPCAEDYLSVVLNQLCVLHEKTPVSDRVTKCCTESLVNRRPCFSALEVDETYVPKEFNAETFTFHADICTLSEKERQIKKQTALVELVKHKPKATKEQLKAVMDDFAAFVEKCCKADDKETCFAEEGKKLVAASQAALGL", "assay": "SPR; 250 nM HSA, no significant binding", "description": "as §3, §4"}, "[13]": {"biological_target": "T1, ICAM-1 extracellular domain (C-terminal …)", "assay": "ITC; 37 C, potassium phosphate; 7.96 nM at 33 C", "settings": "tags: C-terminal His6; Ray-Biotech 228-21751-2", "description": "as §1"}}, "data": [{"binder": "GTGCTCAGTTGTCAATCTAAGACTGCTGCTGAGGAAG (ssDNA)", "note": "[NasD-4.1 State 6]", "values": [{"measurement": "Kd", "setting": "[1]", "result": 18.6, "unit": "nM"}]}, {"binder": "GTGCTCAGTTGTCAATCTATGACTGCTGCTGAGGAAG (ssDNA)", "note": "[Nas.D-4.1]", "values": [{"measurement": "binding signal", "setting": "[2]", "result": 2.5, "unit": "fold vs parent Nas.D-4"}, {"measurement": "Kd", "setting": "[3]", "result": 11.2, "unit": "nM"}]}, {"binder": "GTGCTCACTTGTCAATCTATGACTGCTGCTCAGGAAG (ssDNA)", "note": "[NasD-4.1 State 3]", "values": [{"measurement": "Kd", "setting": "[4]", "result": 40.4, "unit": "nM"}]}, {"binder": "GTGCTCAGTTGTCAAAGAATGACTGCTGCTGAGGAAG (ssDNA)", "note": "[NasD-4.1 State 7]", "values": [{"measurement": "Kd", "setting": "[5]", "result": 6.77, "unit": "nM"}]}, {"binder": "GAGCTCAGTTGTCAATCTATGACTGCTGCTGAGGAAG (ssDNA)", "note": "[NasD-4.1 State 2]", "values": [{"measurement": "Kd", "setting": "[6]", "result": 102, "unit": "nM"}]}, {"binder": "GTGGTCAGTTGTGAATCTATGACTGCTGCTGAGGAAG (ssDNA)", "note": "[NasD-4.1 State 1]", "values": [{"measurement": "Kd", "setting": "[7]", "result": 2.83, "unit": "nM"}]}, {"binder": "GTGCTCACTTGTCAATCTATGACTGCTGCTGAGTAAG (ssDNA)", "note": "[NasD-4.1 State 4]", "values": [{"measurement": "Kd", "setting": "[8]", "result": 6.39, "unit": "nM"}]}, {"binder": "GGGCGCACCGTTTACGCGTAAATCGGTCCGCTATT (ssDNA)", "note": "[Nas.D-5.1]", "values": [{"measurement": "binding signal", "setting": "[9]", "result": "> 2", "unit": "fold vs parent Nas.D-5"}]}, {"binder": "B1", "values": [{"measurement": "Kd", "setting": "[10]", "result": 28.4, "unit": "nM"}, {"measurement": "binding signal", "setting": "[11]", "result": 12, "unit": "% surface bound"}, {"measurement": "binding result", "setting": "[12]", "result": "no binding"}]}, {"binder": "GTGCTCTCTTGTCAATCTATGACTGCTGGAGAGGAAG (ssDNA)", "note": "[NasD-4.1 State 5]", "values": [{"measurement": "Kd", "setting": "[13]", "result": 5.14, "unit": "nM"}]}, {"binder": "B2", "values": [{"measurement": "Kd", "setting": "[10]", "result": 44.3, "unit": "nM"}, {"measurement": "binding signal", "setting": "[11]", "result": 11, "unit": "% surface bound"}, {"measurement": "binding result", "setting": "[12]", "result": "no binding"}]}, {"binder": "B3", "values": [{"measurement": "Kd", "setting": "[10]", "result": 70.2, "unit": "nM"}, {"measurement": "binding signal", "setting": "[11]", "result": 17, "unit": "% surface bound"}, {"measurement": "binding result", "setting": "[12]", "result": "no binding"}]}, {"binder": "B4", "values": [{"measurement": "Kd", "setting": "[10]", "result": 64.4, "unit": "nM"}, {"measurement": "binding result", "setting": "[12]", "result": "no binding"}]}]}
